The target in assay [1] is HSV-1 glycoprotein D-Fc fusion protein (HSV-1) (UniProt Q69091). Put plainly: SPR, G-Fc captured on anti-human IgG. On the technique in general: SPR reads the build-up and loss of mass on a sensor chip optically.
Assay [2] shares this target. Put plainly: phage ELISA, glycoprotein D coated, anti-M13 HRP; well C10. In general terms: ELISA stands for enzyme-linked immunosorbent assay.
The target is the same in assay [3]. The assay is described as follows: SPR, G-Fc captured on anti-human IgG; high end tied to G75 by Table 6.
The target is the same in assay [4]. The assay is described as follows: SPR Biacore T200, single cycle kinetics, G-Fc captured on anti-human IgG, 1:1 fit.
Assay [5] shares this target. The assay is described as follows: SPR Biacore T200, single cycle kinetics, G-Fc captured on anti-human IgG, 1:1 fit, second run.

B1: 3-G-75_M13R (VHH, not shown: small tags and cut ends)
VHH: QVKLEESGGGVVQDGGSLRLSCAAIEQFFTTNAMAWFRQAPGKERELVAATDWSGQSTSYADSVKGRFTISRDTAKNVMYLQMNILHTEDTAVYYCARAPGRVLLTSDLESYTIWGQGTQVTVSS
In the case of B1, the Kd in assay [1] is 4 nM; in assay [3] it was 4 nM; in assay [4], 4.02 nM; in assay [5], 3.86 nM. In addition, in assay [2], the A450 nm was found to be 1.13. The values for the koff in assay [4] and in assay [5] were 0.0139 s⁻¹ and 0.0152 s⁻¹, respectively. Further, the kon in assay [4] is 3.47e+06 M⁻¹ s⁻¹; in assay [5], 3.93e+06 M⁻¹ s⁻¹.

One may read the Kd as the free concentration of one partner at which half of the binding sites on the other are occupied at equilibrium, for simple one-to-one binding. The low end stands for a tighter complex, the high end for a looser complex. Broadly, the koff is the first-order rate constant of dissociation. A high value points to a short-lived complex. One may read the kon as the second-order rate constant of association. High values mean faster complex formation, low ones slower complex formation.

Source of the values: patent US20230279077A1.
